In publication PMC9018835, “Regulated interaction of ID2 with the anaphase-promoting complex links progression through mitosis with reactivation of cell-type-specific transcription” (Nature Communications, 2022):
Numbering of substitutions follows the chain as printed. Names and notes keep the numbering of the source.

Columns and labels:
[1] = target: core APC (endogenous, HeLa) (human (endogenous in HeLa)); assay: cell-based or functional assay
[2] = target: T1, HA-CDH1, in vitro translated (UniProt Q9UM11 1-496); assay: pull-down; GST-ID2, with or without prior in vitro phosphorylation by CDK1-Cyclin B, incubated with APC immunopurified through FLAG-APC3 from HeLa cells and activated by in vitro translated HA-CDC20 or CDH1; western blot (Fig. 3h); conditions: both partners purified
T1 construct: CDH1/FZR1, generated by PCR and cloned into pcDNA3; also called in vitro translated CDH1; source: in vitro translated
T1 sequence (Q9UM11 whole entry): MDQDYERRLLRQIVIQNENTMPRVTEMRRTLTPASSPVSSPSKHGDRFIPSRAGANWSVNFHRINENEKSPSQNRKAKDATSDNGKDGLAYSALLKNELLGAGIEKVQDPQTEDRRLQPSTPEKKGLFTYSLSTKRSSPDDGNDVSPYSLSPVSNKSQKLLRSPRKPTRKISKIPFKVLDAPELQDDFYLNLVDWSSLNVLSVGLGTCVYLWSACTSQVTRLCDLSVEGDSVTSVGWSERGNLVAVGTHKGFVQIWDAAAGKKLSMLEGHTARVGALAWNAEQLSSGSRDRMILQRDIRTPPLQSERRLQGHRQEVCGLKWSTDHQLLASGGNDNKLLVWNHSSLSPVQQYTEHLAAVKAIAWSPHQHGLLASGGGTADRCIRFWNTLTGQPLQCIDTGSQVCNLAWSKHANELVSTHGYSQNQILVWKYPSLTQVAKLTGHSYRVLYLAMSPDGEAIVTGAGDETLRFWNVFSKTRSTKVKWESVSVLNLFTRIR

B1: FLAG-ID2-S5D (natural protein, UniProt Q02363 1-134, looked up)
chain: MKAFDPVRSVRKNSLSDHSLGISRSKTPVDDPMSLLYNMNDCYSKLKELVPSIPQNKKVSKMEILQHVIDYILDLQIALDSHPTIVSLHHQRPGQNQASRTPLTTLNTDISILSLQASEFPSELMSNDSKALCG
half-life of ID2-S5D in transiently transfected HeLa cells treated with cycloheximide, against ID2 wild type [1]: ~5 fold

B2: GST-ID2 wild type (natural protein, UniProt Q02363 1-134, looked up)
chain: B1 chain with D5S
notes: also called GST-ID2 WT; recombinant GST-ID2; source: E. coli BL21(DE3), purified GST fusion, immobilised on glutathione sepharose 4B
binding result [2]: binds

B3: phospho-S5-GST-ID2 (natural protein, UniProt Q02363 1-134, looked up)
chain: B1 chain with D5S
modifications: phosphoserine at 5 (in vitro phosphorylation by Cyclin B-CDK1)
notes: also called CDK1 phosphorylated GST-ID2; source: E. coli BL21(DE3), GST fusion; phosphorylated in vitro by CDK1-Cyclin B
binding result [2]: binds
